Experimental data as given in US20070026059A1, “Ligands for orphan nuclear hormone receptor steroidogenic factor-1 (SF-1)” (priority 2005, published 2007).
One block for each molecule: values may come before it. Ends that are not written are not given here. * marks the point of attachment. Biotin = O=C1N[C@H]2[C@H](CS[C@H]2CCCCC(=O)*)N1

Key:
[1] = system: mutated SF-1 LBD (pocket residue to tryptophan mutants); assay: AlphaScreen assay: effect of 12PE on restoring co-activator binding of mutated SF-1 receptors; format: biochemical, mouse; conditions: 12PE 1.25 μM, FIG. 6E
Method: E. Effects of 12PE (1.25 μM) on restoring TIF2 binding activity of mutated SF-1 receptors.
All phospholipids were purchased from Sigma and stored according to the manufacturer's instructions. The binding of the various peptide motifs to SF-1 was determined by AlphaScreen™ assays from Perkins-Elmer as described recently for other nuclear receptors (Xu et al., 2002). Wild type SF-1 and the mutated LBDs were purified as 6×His tag fusion proteins for the assays. The experiments were conducted with approximately 20-30 nM receptor LBD and 20 nM of biotinylated TIF2 peptide or other co-activator peptides in the presence of 5 μg/ml donor and acceptor beads in a buffer containing 50 mM MOPS, 50 mM NaF, 0.05 mM CHAPS, and 0.1 mg/ml bovine serum albumin, all adjusted to pH 7.4. An AlphaScreen kit for detection of hexa-His was used in this experiment and the binding signals for the TIF2/SF-1 interaction were detected in the absence or the presence of exogenous phospholipids. […]
The SF-1 pocket comprises 51 residues that form intimate contacts with the bound phospholipid ligand. […] All mutated receptors expressed well and were readily purified for AlphaScreen assays that measure SF-1 recruitment of three different co-activator motifs that show interactions with SF-1 in FIG. 1A.

[2] = biological target: T1, SF-1 LBD / TIF2 co-activator motif interaction (Mus musculus, UniProt P33242); assay: AlphaScreen assay of SF-1 binding to TIF2 co-activator LxxLL motif in absence or presence of phospholipids; format: biochemical; conditions: for EC50: in the presence of 10% ethanol, FIG. 5E, read-out: potency (EC50) for recovering the SF-1/TIF2 binding activity
T1 construct: The mouse SF1 LBD (residues 221-462) was expressed as a 6×His fusion protein; made in house; host or cells: E. coli BL21 (DE3), pET24a
Method: The mouse SF1 LBD (residues 221-462) was expressed as a 6×His fusion protein from the expression vector pET24a (Novagen). BL21 (DE3) cells transformed with this expression plasmid were grown in LB broth at 16° C. to an OD600 of ˜1.0 and induced with 0.1 mM isopropylthio-β-D-galactoside (IPTG) for 16 hours. Cells were harvested, resuspended in 400 ml extract buffer (20 mM Tris pH8.0, 150 mM NaCl, 10% glycerol) per 6 l. of cells, and passed 3 times through a French Press with pressure set at 1000 pa. The lysate was centrifuged at 20,000 rpm for 30 minutes and the supernatant was loaded onto a 50 ml Ni-NTA column (Qiagen). The column was washed with extract buffer and the protein eluted with 300 ml gradient to buffer B (10 mM Tris, PH8.0, 150 mM NaCl, 10% glycerol and 500 mM imidazole). The protein was further purified with a Q-Sepharose column (Amersham Biosciences). A typical yield of the purified protein was about 100 mg from each liter of cells. To prepare the protein-cofactor complex, we added a 2-fold excess of the SHP peptide ([…]; SEQ ID NO:1) to the purified protein, followed by filter concentration to 15 mg/ml.
(§1) All phospholipids were purchased from Sigma and stored according to the manufacturer's instructions. The binding of the various peptide motifs to SF-1 was determined by AlphaScreen™ assays from Perkins-Elmer as described recently for other nuclear receptors (Xu et al., 2002). Wild type SF-1 and the mutated LBDs were purified as 6×His tag fusion proteins for the assays. The experiments were conducted with approximately 20-30 nM receptor LBD and 20 nM of biotinylated TIF2 peptide or other co-activator peptides in the presence of 5 μg/ml donor and acceptor beads in a buffer containing 50 mM MOPS, 50 mM NaF, 0.05 mM CHAPS, and 0.1 mg/ml bovine serum albumin, all adjusted to pH 7.4. An AlphaScreen kit for detection of hexa-His was used in this experiment and the binding signals for the TIF2/SF-1 interaction were detected in the absence or the presence of exogenous phospholipids. EC50/IC50 values for the effects of phospholipids on TIF2 binding to SF-1 were determined from a nonlinear least square fit of the data based on an average of three repeated experiments with standard errors typically less than 10% of measurements.

SF-1 LBD = biological target: T2, SF-1 LBD (Mus musculus, UniProt P33242); assay: AlphaScreen binding of LxxLL / co-repressor motif peptides to purified SF-1 LBD; conditions: FIG. 1A
T2 construct: The mouse SF1 LBD (residues 221-462) was expressed as a 6×His fusion protein; made in house; host or cells: E. coli BL21 (DE3), pET24a
Method: A. Binding of various LxxLL motifs to the purified SF-1 LBD as measured by AlphaScreen™ assays. The background reading of either SF-1 or the peptides alone is less than 200. The peptide sequences are listed in experimental procedures. The results are the average of three experiments (error bars=standard deviation).
as §1
The peptides with an N-terminal biotinylation are listed below.

T2 sequence (P33242 221-462): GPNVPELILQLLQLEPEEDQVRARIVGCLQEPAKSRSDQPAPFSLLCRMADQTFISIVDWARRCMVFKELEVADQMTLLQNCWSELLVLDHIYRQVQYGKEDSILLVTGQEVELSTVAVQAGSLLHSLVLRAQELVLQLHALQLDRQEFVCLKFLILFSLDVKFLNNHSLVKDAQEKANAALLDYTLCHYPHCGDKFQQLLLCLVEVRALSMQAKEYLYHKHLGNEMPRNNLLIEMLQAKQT
T1 sequence (P33242 221-462): as above

Molecule: CCCCCCCCCCCC(=O)OC[C@H](COP(=O)(O)OCCN)OC(=O)CCCCCCCCCCC [12PE, 1,2-Didodecanoyl-sn-glycero-3-phosphoethanolamine]
restoration of co-activator binding of SF-1 mutants A270W, L266W and L348W [1]: completely restored | restoration of co-activator binding of SF-1 mutants L345W, V349W and A434W [1]: cannot be restored | EC50 [2]: 66 nM

Molecule: CCCCCCCCCCCCCC(=O)OC[C@H](COP(=O)(O)OCCN)OC(=O)CCCCCCCCCCCCC [14PE, 1,2-dimyristoyl-sn-glycero-3-phosphoethanolamine]
EC50 [2]: 64 nM

Molecule: CCCCC/C=C\C/C=C\CCCCCCCC(=O)OC[C@H](COP(=O)([O-])OCC[N+](C)(C)C)OC(=O)CCCCCCC/C=C\C/C=C\CCCCC [18PCD, 1,2-dilinoleonyl-sn-glycerol-3-phosphocholine]
effect on high basal SF-1/TIF2 interaction ([2]; absence of ethanol, FIG. 5D): disrupted the high basal interactions of SF-1 with TIF2 in a dose dependent manner | IC50 ([2]; absence of ethanol, high basal interaction, FIG. 5D, read-out: IC50 for inhibiting the SF-1/TIF2 interactions): 100 to 300 nM

Molecule: CCO [ethanol]
loss of the SF-1/TIF2 binding activity ([2]; 10% ethanol added to the binding buffer): > 90%

Molecule: CBP: N-terminally biotinylated peptide SGNLVPDAASKHKQLSELLRGGSG (SEQ ID NO:8) (Biotin-SGNLVPDAASKHKQLSELLRGGSG; listed as Mus musculus)
interaction of peptide motif with purified SF-1 (SF-1 LBD): not

Molecule: SRC-1 fourth LxxLL motif: N-terminally biotinylated peptide QKPTSGPQTPQAQQKSLLQQLLTE (SEQ ID NO:4) (Biotin-QKPTSGPQTPQAQQKSLLQQLLTE; listed as Mus musculus)
interaction of peptide motif with purified SF-1 (SF-1 LBD): able to interact

Molecule: TRAP220: N-terminally biotinylated peptide GHGEDFSKVSQNPILTSLLQITGN (SEQ ID NO:7) (Biotin-GHGEDFSKVSQNPILTSLLQITGN; listed as Mus musculus)
interaction of peptide motif with purified SF-1 (SF-1 LBD): not

Molecule: first LxxLL motif of SHP: N-terminally biotinylated peptide PCQGSASHPTILYTLLSPGP (SEQ ID NO:5) (Biotin-PCQGSASHPTILYTLLSPGP; listed as Mus musculus)
interaction of peptide motif with purified SF-1 (SF-1 LBD): able to interact

Other lines, results leading:

EC50 [2]: 80 to 120 nM
Molecule: CCCCCCCCCCCCCCCC(=O)OC[C@H](COP(=O)([O-])OCC[N+](C)(C)C)OC(=O)CCCCCCCCCCCCCCC [16PC, 1,2-dihexadecanoyl-sn-glycero-3-phosphocholine]

interaction of peptide motif with purified SF-1 (SF-1 LBD): did not interact
Molecule: N-COR: N-terminally biotinylated co-repressor motif peptide GHSFADPASNLGLEDIIRKALMGSF (SEQ ID NO:9)

interaction of peptide motif with purified SF-1 (SF-1 LBD): did not interact
Molecule: SMRT: N-terminally biotinylated co-repressor motif peptide QAVQEHASASTNMGLEAIIRKALMGKY (SEQ ID NO:10) (Biotin-QAVQEHASASTNMGLEAIIRKALMGKY; listed as Mus musculus)

interaction of peptide motif with purified SF-1 (SF-1 LBD): able to interact
Molecule: SRC-1 second LxxLL motif: N-terminally biotinylated peptide SPSSHSSLTERHKILHRLLQEGSP (SEQ ID NO:3) (Biotin-SPSSHSSLTERHKILHRLLQEGSP; listed as Mus musculus)

AlphaScreen signal on incubation of SF-1 with peptide (SF-1 LBD; background of SF-1 or peptide alone less than 200): ~45,000 photo counts
Molecule: TIF2 peptide: N-terminally biotinylated peptide QEPVSPKKKENALLRYLLDKDDTKD (SEQ ID NO:2), third LxxLL motif of co-activator TIF2

interaction of peptide motif with purified SF-1 (SF-1 LBD): not
Molecule: second SHP LxxLL motif: N-terminally biotinylated peptide VABAPVPSILKKILLEEPNS (SEQ ID NO:6)
